According to PMC8809517, “Cofactor-independent RNA editing by a synthetic S-type PPR protein”:

T1: GFP-9S library array, motif 4 ND D124M (synthetic construct, D124M)
T1 chain: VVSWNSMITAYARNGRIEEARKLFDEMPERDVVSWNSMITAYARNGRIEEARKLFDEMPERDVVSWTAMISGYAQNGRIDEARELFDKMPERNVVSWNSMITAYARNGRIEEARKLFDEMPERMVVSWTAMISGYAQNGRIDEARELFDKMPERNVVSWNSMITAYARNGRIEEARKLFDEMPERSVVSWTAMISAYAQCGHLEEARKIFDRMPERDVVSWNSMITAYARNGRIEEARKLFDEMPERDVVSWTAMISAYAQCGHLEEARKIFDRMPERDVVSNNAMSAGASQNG

T2: GFP-9S library array, motif 4 ND N98I;D124H (synthetic construct, N98I;D124H)
T2 chain: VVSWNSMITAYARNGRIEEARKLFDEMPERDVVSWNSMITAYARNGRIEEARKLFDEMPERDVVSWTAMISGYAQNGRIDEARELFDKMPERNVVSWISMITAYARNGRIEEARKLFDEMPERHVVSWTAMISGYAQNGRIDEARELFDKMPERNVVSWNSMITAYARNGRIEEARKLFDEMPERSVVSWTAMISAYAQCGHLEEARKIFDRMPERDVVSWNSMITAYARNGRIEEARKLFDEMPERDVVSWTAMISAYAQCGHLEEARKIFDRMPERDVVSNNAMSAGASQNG

T3: GFP-9S library array, motif 4 ND N98D;D124H (synthetic construct, N98D;D124H)
T3 chain: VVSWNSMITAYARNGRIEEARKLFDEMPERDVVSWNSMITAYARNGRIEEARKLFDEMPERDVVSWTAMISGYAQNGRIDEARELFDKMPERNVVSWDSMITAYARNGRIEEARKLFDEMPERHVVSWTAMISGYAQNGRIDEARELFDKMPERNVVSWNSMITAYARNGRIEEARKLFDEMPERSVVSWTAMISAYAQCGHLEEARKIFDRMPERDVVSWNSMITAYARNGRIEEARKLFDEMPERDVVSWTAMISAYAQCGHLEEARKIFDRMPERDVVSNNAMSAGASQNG

T4: GFP-9S library array, motif 4 ND N98Q;D124G (synthetic construct, N98Q;D124G)
T4 chain: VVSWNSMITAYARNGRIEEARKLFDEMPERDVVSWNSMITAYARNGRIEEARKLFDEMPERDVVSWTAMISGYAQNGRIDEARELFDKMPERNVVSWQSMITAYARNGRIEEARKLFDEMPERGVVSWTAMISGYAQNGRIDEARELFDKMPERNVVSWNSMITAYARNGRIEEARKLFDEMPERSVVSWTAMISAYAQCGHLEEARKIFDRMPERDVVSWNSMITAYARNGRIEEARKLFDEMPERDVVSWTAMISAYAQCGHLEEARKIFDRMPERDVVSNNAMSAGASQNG

T5: GFP-9S library array, motif 4 ND N98Y;D124C (synthetic construct, N98Y;D124C)
T5 chain: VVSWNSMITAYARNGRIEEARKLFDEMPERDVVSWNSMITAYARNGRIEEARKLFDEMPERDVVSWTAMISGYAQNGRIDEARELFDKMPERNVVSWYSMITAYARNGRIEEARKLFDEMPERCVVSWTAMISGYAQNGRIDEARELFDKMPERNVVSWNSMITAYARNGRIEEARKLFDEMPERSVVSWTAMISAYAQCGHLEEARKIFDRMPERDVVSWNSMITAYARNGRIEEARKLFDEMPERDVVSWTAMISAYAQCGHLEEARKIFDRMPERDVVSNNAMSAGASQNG

B1: IR-rpoA-A (ssRNA)
RNA: AUUAAACGUGA
B2: IR-rpoA-U (ssRNA)
RNA: AUUAUACGUGA
B3: Cy5-rpoA (ssRNA)
RNA: AUUACACGUGA
B4: Cy5-rpoA-G (ssRNA)
RNA: AUUAGACGUGA

What was measured:
Assay in all cases: high-throughput RNA pulldown from lysate on Ni-NTA beads; HRP: 50 mM Tris pH 8, 150 mM NaCl, 1 mM beta-mercaptoethanol, 50 ug/ml BSA, 3 ug/ml yeast RNA, 0.5% heparin; ITC and FP: Tris pH 8, 200 mM KCl, 5% glycerol; MST: 50 mM Tris pH 8, 200 mM NaCl, 1 mM DTT, BSA, heparin, 0.05% Tween 20
Conditions in all cases: tags: N-terminal His-eGFP
[1] = molecular target: T1, GFP-9S library array, motif 4 ND D124M
[2] = molecular target: T2, GFP-9S library array, motif 4 ND …
[3] = molecular target: T3, GFP-9S library array, motif 4 ND …
[4] = molecular target: T4, GFP-9S library array, motif 4 ND …
[5] = molecular target: T5, GFP-9S library array, motif 4 ND …

Row | Binder | Kd ([1]; label: 5' IRDye 800CW) | Kd ([2]; label: 5' IRDye 800CW) | Kd ([3]; label: 5' IRDye 800CW) | Kd ([4]; label: 5' IRDye 800CW) | Kd ([5]; label: 5' IRDye 800CW) | Kd ([1]; label: 5' Cy5) | Kd ([2]; label: 5' Cy5) | Kd ([3]; label: 5' Cy5) | Kd ([4]; label: 5' Cy5) | Kd ([5]; label: 5' Cy5)
1 | B1 | 78.1 nM | 167 nM | 311 nM | 373 nM | 211 nM | – | – | – | – | –
2 | B2 | 21.2 nM | 243 nM | 182 nM | 321 nM | 271 nM | – | – | – | – | –
3 | B3 | – | – | – | – | – | 71.1 nM | 147 nM | 123 nM | 154 nM | 126 nM
4 | B4 | – | – | – | – | – | 139 nM | 107 nM | 120 nM | 166 nM | 115 nM
